{"source": "patent US20100330066A1", "target": "murine BAFF (murine) (UniProt Q9WU72)", "sequence (Q9WU72 127-309 limits assumed)": "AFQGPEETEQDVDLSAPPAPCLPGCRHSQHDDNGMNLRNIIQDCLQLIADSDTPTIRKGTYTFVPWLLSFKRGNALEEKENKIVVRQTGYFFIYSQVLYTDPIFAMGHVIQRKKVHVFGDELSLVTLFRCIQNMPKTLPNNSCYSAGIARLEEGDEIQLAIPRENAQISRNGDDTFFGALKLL", "experiment": "cell-based or functional assay"}
{"substance": "BAFF-R:Fc (BAFF-R Fc fusion protein) (from UniProt Q96RJ3 2-71)", "values": [{"measurement": "B cell surface IgG2a/b expression (MFI, flow cytometry) in wildtype mice after BAFF-R:Fc treatment", "result": 1.7, "unit": "fold"}, {"measurement": "NF-κB2 transcription in spleen of wildtype mice, 2 days after i.p. BAFF-R:Fc (Affymetrix microarray)", "result": 1.82, "unit": "fold"}]}
